Measured values taken from patent US20220064329A1 (Novo Nordisk, published 2022).
Changes are numbered by the printed parent chain.

T1: recombinant human activated Factor VII (FVIIa) (human, UniProt P08709 61-212; P08709 213-466, Gla domain: ten glutamate residues may be gamma-carboxylated)
T1 sequence 1: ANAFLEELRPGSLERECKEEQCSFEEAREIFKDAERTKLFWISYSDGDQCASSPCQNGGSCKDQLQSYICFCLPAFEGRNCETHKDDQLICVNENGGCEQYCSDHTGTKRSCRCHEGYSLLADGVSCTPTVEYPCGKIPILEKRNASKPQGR
T1 sequence 2: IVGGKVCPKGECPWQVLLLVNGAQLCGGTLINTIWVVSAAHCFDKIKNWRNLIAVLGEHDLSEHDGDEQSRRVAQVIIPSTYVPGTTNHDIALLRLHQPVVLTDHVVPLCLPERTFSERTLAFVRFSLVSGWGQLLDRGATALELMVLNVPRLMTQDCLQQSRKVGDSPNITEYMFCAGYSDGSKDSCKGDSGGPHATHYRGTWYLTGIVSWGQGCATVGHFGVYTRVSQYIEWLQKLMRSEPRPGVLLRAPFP

T2: recombinant human activated FVII (FVIIa) (human, UniProt P08709 61-212; P08709 213-466, ten glutamate residues of the Gla domain may be gamma-carboxylated)
T2 sequence 1: T1 sequence 1
T2 sequence 2: T1 sequence 2

B1: mAb0004 (antibody, V domains shown)
VH: QVQLKESGPGLVAPSQSLSITCTVSGFSLTDYGVSWIRQPPGKGLEWLGVIWGGGNTYNNSALKSRLSISKDNSKSQVFLKMNSLQADDTAMYFCAKHGYYGYVMDYWGQGTSVTVSS
VL: DIVMTQSHKIMSTLVGDRVSITCKASQDVDPAVAWYQQKPGQYPKLLIYWASTRHTGVPDRFTGSGSGTDFTLTISNVQSEDLADYFCQQYSKYPYTFGGGTKLEIK
notes: fully murine, hybridoma-derived; also called 11F19
B2: mAb0018 (antibody, V domains shown)
VH: QITLKESGPGILKPSQTLSLTCSFSGFSLSTSGLGVGWIRQTSGKGLEWLAHIWWDDDKYYYPPLKSQLTISKDTSRNQVFLKITSVDTADTATYYCARRAFYDGYYGPMEYWGQGTSVTVSS
VL: DIVLSQSPSSLAVSVGEKVTMSCKSSQSLLYSSNQKNSLAWYQHKPGQSPKLLIYWASTRESGVPDRFTGSGSGTDFTLTISNVKAEDLAVYYCHQYYNYLLTFGPGTKLELK
notes: fully murine, hybridoma-derived; also called 8F19
B3: mAb0578 (antibody, V domains shown)
VH: QVQLQQSGAELMKPGASVKISCKATGYTFNTYWIEWVKQRPGHGLEWIGEILPGRGTTNYNENFKGKATITADISSNTAYLQLSSLTGEDSAVYYCARLTPLSLRTGYWGQGTTLTVSS
VL: DILLTQSPAILSVSPGERVSFSCRASQSIGTSIHWYQQRTNGSPRLLIKYASESISGIPSRFSGSGSGTDFTLSINSVESEDIADYYCQQSNSWPFTFGSGTKLEIK
notes: fully murine, hybridoma-derived; also called 12F19
B4: mAb0007 (antibody, V domains shown)
VH: DVQLQESGPGLVEPSQSLSLTCTVTGYSITSDCAWSWIRQFPGNKLEWMGYINYSGSTNYNPSLKSRISITRDTSKNQFFLRLNSVTGEDTATYYCARSVNYYGNSFAVGYWGQGTSVTVSS
VL: DIVMTQSPATLSVTPGDRVSLSCRASQSISDYLHWYQHKSHESPRLLIKYVSQPISGIPSRFSGSGSGSEFTLSINSVEPEDVGVYYCQNGHSFPLTFGAGTKLELK
notes: fully murine, hybridoma-derived; also called 11F34
B5: mAb0544 (antibody, V domains shown)
VH: B4 VH with E13K, S36N, K76Q, Q78H, R82Q, N84S, G88A, A97T, T116I
VL: DIVMSQSPATLSVTPGDRVSLSCRTSQDIGDYLHWYRQKSHESPRLLIKYTSQSVSGIPSRFSGSGSGSDFTLSINTVEPEDVGLYYCQNGHSFPLTFGTGTRLELK
notes: fully murine, hybridoma-derived; also called 11F9
B6: mAb0005 (antibody, V domains shown)
VH: B4 VH with I70V, N84S, G88A, A97T
VL: B4 VL with P15A, S28G, H38Q, V51T, I55V
notes: fully murine, hybridoma-derived; also called 11F2; mAb005
B7: mAb0552 (antibody, V domains shown)
VH: B4 VH with E13K, S36N, Q78H, R82Q, G88A, N101D, Y103F, T119A
VL: B4 VL with H38Q, V51S, P54S, E70D
notes: fully murine, hybridoma-derived; also called 11F18
B8: mAb0587 (antibody, V domains shown)
VH: QVQLQQSGAELLKPGASVKISCKATDYTFSRYWIEWVKQRPGHGLEWIGEILPGSVNIKYNEIFKGKATFTAETSSNTAYMQLSSLTSEDSAVYYCTRTPYLQRGAYWGQGTLVTVSA
VL: QIVLTQSPAIMSASPGEKVTITCSASSSVSYMFWFQQKPGTSPKLWIYSTSNLASGVPARFSGSGSGTSYSLTISRMEAEDAATYYCQQRSSYPLTFGAGTKLELK
notes: fully murine, hybridoma-derived; also called 12F39
B9: mAb0001 (antibody, V domains shown)
VH: EIQLQQTGPELVKPGASVKISCKASGYSFTDYIMVWMKQSQGKTLEWIGKINPYYGDISYNLKFKGKATLTVDKSSSTVYMQLNSLASEDSAVYYCARGFYYDYFDQWGQGTTLTVSS
VL: DVMVTQTPLSLPVNLGDQASISCRSSQSLVHSNGNTYLHWYLQKPGQSPKLLIYRVSDRFSGVPDRFSGSGSGTDFTLKISRVEAEDLGVYFCSQSTHVPPTFGGGTKLEIK
notes: fully murine, hybridoma-derived; also called 11F26
B10: biAb0241 (bispecific antibody, human IgG4 S228P, kappa)
heavy 1: QVQLQESGPGLVKPSQTLSLTCTVSGYSISSDSAWSWIRQPPGKGLEWIGYIQYSGSTNYNPSLKSRVTISRDTSKNQFSLKLSSVTAADTAVYYCARSVNYYGNSFAVGYWGQGTLVTVSSASTKGPSVFPLAPCSRSTSESTAALGCLVKDYFPEPVTVSWNSGALTSGVHTFPAVLQSSGLYSLSSVVTVPSSSLGTKTYTCNVDHKPSNTKVDKRVESKYGPPCPPCPAPEFLGGPSVFLFPPKPKDTLMISRTPEVTCVVVDVSQEDPEVQFNWYVDGVEVHNAKTKPREEQFNSTYRVVSVLTVLHQDWLNGKEYKCKVSNKGLPSSIEKTISKAKGQPREPQVYTLPPSQEEMTKNQVSLTCLVKGFYPSDIAVEWESNGQPENNYKTTPPVLDSDGSFLLYSKLTVDKSRWQEGNVFSCSVMHEALHNHYTQKSLSLSLGK
light 1: EIVLTQSPATLSLSPGERATLSCRASQGISDYLHWYQQKPGEAPRLLIKYTSQPATGIPARFSGSGSGTDFTLTISSLEPEDFAVYYCQNGHSFPLTFGQGTKLEIKRTVAAPSVFIFPPSDEQLKSGTASVVCLLNNFYPREAKVQWKVDNALQSGNSQESVTEQDSKDSTYSLSSTLTLSKADYEKHKVYACEVTHQGLSSPVTKSFNRGEC
heavy 2: not shown
light 2: DIVVSQSPSSLAVSAGEKVTMSCKSSQSLLNSRTRKNYLAWYQQKPGQSPKLLIYWASTRESGVPDRFTGSGSGTDFTLTISSVQAEDLAVYYCKQSYNLLTFGAGTKLELKRTVAAPSVFIFPPSDEQLKSGTASVVCLLNNFYPREAKVQWKVDNALQSGNSQESVTEQDSKDSTYSLSSTLTLSKADYEKHKVYACEVTHQGLSSPVTKSFNRGEC
B11: biAb0243 (bispecific antibody, human IgG4 S228P, kappa)
heavy 1: B10 heavy 1
light 1: B10 light 1
heavy 2: not shown
light 2: DIQMTQTTSSLSASLGDRVTISCRASQDISNYLNWYQQKPDGTVKLLIFYTSRLHSGVPSRFSGSGSGTDYSLTISNLEPEDIATYYCQQDTKLPYTFGGGTKLEMKRTVAAPSVFIFPPSDEQLKSGTASVVCLLNNFYPREAKVQWKVDNALQSGNSQESVTEQDSKDSTYSLSSTLTLSKADYEKHKVYACEVTHQGLSSPVTKSFNRGEC
B12: biAb0242 (bispecific antibody, human IgG4 S228P, kappa)
heavy 1: B10 heavy 1
light 1: B10 light 1
heavy 2: not shown
light 2: SIVMTQTPKFLLVSAGDRVTITCKASQSVSNDVAWYQQKPGQSPKLLINYASSRYTGIPDRFTGSGYGTDFTFTISTVQAEDLAVYFCQQDYSSPYTFGGGTKLEIERTVAAPSVFIFPPSDEQLKSGTASVVCLLNNFYPREAKVQWKVDNALQSGNSQESVTEQDSKDSTYSLSSTLTLSKADYEKHKVYACEVTHQGLSSPVTKSFNRGEC

target: T1, recombinant human activated Factor VII …; assay: cell-based or functional assay

First: B1
Second: B2
The “AT inhibition (kinh %)” value of the first is lower: 24% for the first, 525% for the second.

Compared with B3, B4 is higher in “AT inhibition (kinh %)” value: 77% for the first, 121% for the second.

Compared with B5, B6 is higher in “AT inhibition (kinh %)” value: 111% for the first, 133% for the second.

First: B7
Second: B8
The “AT inhibition (kinh %)” value of the first is higher: 118% for the first, 103% for the second.

For B9, the “AT inhibition (kinh %)” value was 82%.

Going from B1 to B2, the “TGT activity (% FVIIa)” value rises from 75 % FVIIa to 141 % FVIIa.

Compared with B3, B4 is higher in “TGT activity (% FVIIa)” value: 91 % FVIIa for the first, 113 % FVIIa for the second.

Compared with B5, B6 is higher in “TGT activity (% FVIIa)” value: 103 % FVIIa for the first, 115 % FVIIa for the second.

First: B7
Second: B8
The “TGT activity (% FVIIa)” value of the first is higher: 104 % FVIIa for the first, 93 % FVIIa for the second.

In the case of B9, the “TGT activity (% FVIIa)” value is reported as 109 % FVIIa.

target: T1, recombinant human activated Factor VII …; assay: SPR (Biacore T200), antibody captured on anti-murine IgG, FVIIa injected at 5-135 nM, 1:1 model
Description: Anti-murine IgG (by GE Healthcare) was immobilised on a CM4 sensor chip using standard amine coupling chemistry kit (both supplied by GE Healthcare). […] The running buffer was prepared by diluting 10-fold the 10×HBS-P buffer (supplied by GE Healthcare) and supplemented with 1 mg/ml BSA and 5 mM CaCl₂) to give 10 mM HEPES, 150 mM NaCl, 0.05% v/v Polysorbate 20(P20), pH 7.4, 5 mM CaCl₂), 1 mg/ml bovine serum albumin (BSA). […] Regeneration of the chip was achieved using regeneration buffer consisting of 10 mM Gly-HCl pH 1.7 (supplied by GE Healthcare). Binding data were analysed according to a 1:1 model using BiaEvaluation 4.1 supplied by the manufacturer (Biacore AB, Uppsala, Sweden).

Going from B1 to B2, the Kd rises from 0.16 nM to 9.3 nM (58-fold).

First: B3
Second: B4
The Kd of the first is 2.3-fold higher: 0.58 nM for the first, 0.25 nM for the second.

Going from B5 to B6, the Kd falls from 0.27 nM to 0.14 nM (1.9-fold).

Going from B7 to B8, the Kd falls from 0.76 nM to 0.49 nM (1.6-fold).

B9 was tested, and the Kd was 0.17 nM.

target: T2, recombinant human activated FVII (FVIIa); assay: cell-based or functional assay

Compared with B10, B11 is lower in “Stimulation (fold): FXa generated by FVIIa with lipidated TLT-1 and 100 nM biAb, relative to free FVIIa” value: 35.3 fold for the first, 25.5 fold for the second.

B12 was tested, and the “Stimulation (fold): FXa generated by FVIIa with lipidated TLT-1 and 100 nM biAb, relative to free FVIIa” value was 21.8 fold.
